Measurements published in patent publication US20140011978A1 (EPFL TTO, published 2014).

Key:
[1] = target: T1, PDGF-AB (UniProt P04085 87-211; P01127 82-190, limits assumed); experiment: ELISA, cytokine coated, Fg β15-66 in solution (methods as Example 3)
T1 construct: The name implies a heterodimer of A and B chains
Description: (§1) ELISA plates were coated with cytokines or BSA and further incubated with TNC III1-5 to analyze binding of TNC III1-5 to a wide variety of cytokines. […] A large amount of heparin (4 μM) impaired binding of TNC III1-5 to these cytokines. Results are depicted in FIG. 3. Method: 50 nM of cytokine was coated for (1 hr, 37° C.). After blocking with 2% BSA (1 hr, RT). 100 nM TNC III1-5 was applied in PBST (0.05% tween, 0.1% bovine serum albumin (BSA)) (1 hr, RT). TNC III1-5 was detected with horseradish peroxidase (HRP)-anti-HIS in PBST (1 hr, RT) and developed with 3,3′,5,5′-tetramethylbenzidine (TMB), a soluble colorimetric HRP […]. Addition of sulfuric acid stop solution changes the color to yellow, enabling accurate measurement of the intensity at 450 nm using a spectrophotometer or plate reader. […] Heparin (4 μM) was added to TNC III1-5 to test the effect of blocking the heparin binding site of TNC III1-5, which has been defined as domain TNC III5 (Weber, Zimmermann, et al., 1995).
(§2) ELISA plates were coated with cytokines or BSA and further incubated with Fg β15-66 to analyze binding of […] to a wide variety of cytokines. […] Results are depicted in FIG. 4. Method: The methods were analogous to those used in Example 3.

[2] = target: T2, FGF-5 (UniProt P12034 21-268, limits assumed); experiment: as above
T2 sequence (looked up): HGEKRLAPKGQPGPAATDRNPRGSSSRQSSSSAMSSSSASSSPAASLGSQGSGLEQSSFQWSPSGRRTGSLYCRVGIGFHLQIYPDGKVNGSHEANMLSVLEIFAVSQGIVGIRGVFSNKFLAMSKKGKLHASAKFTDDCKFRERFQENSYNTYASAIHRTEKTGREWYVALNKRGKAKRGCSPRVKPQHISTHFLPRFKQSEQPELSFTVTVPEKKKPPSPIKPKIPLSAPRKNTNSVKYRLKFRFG
Description: as §1, §2

[3] = target: T3, BMP-2/7 (UniProt P12643 283-396; P18075 293-431); experiment: as above
T3 construct: The name implies a BMP-2/BMP-7 heterodimer
Description: as §1, §2

[4] = target: TGF-β1 (UniProt P01137 279-390); experiment: SPR, Fg β15-66 on the chip, cytokine injected (methods as Example 5), Langmuir fit
Description: (§3) Surface plasmon resonance (SPR) was done to quantify the affinity of specific cytokines to TNC III1-5. […] Method: Surface plasmon resonance chips were functionalized with TNC III1-5 or BSA and cytokines were injected over the chips at different concentrations. The chips contained gold with free carboxyl groups that were activated to bind TNC III1-5 in one channel and BSA as a reference protein in another channel. The specific response of a cytokine to TNC III1-5 (in RU) was obtained relative to the response to BSA. Results are depicted in FIG. 5.
(§4) Surface plasmon resonance (SPR) was done to quantify the affinity of specific cytokines to Fg β15-66. […] Method: The methods used above were analogous to those used in Example 5. Fits of the experimental data were made with Langmuir binding kinetics. Results are depicted in FIG. 6.

[5] = target: T4, PlGF-2 (UniProt P49763-3 19-170); experiment: as above
T4 sequence (looked up): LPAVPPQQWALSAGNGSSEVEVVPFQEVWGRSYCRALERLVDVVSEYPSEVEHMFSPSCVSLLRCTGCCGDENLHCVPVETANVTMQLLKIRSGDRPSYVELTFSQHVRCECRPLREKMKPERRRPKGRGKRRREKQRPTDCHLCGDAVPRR
Description: as §3, §4

[6] = target: IGF-BP5 (UniProt P24593 21-272); experiment: as above
Description: as §3, §4

[7] = target: FGF-2 (UniProt P09038 135-288, limits assumed); experiment: as above
Description: as §3, §4

[8] = target: T5, PDGF-BB (UniProt P01127 82-190); experiment: ELISA: growth factor coated, Fg fragment in solution, A450 (methods analogous to Example 3)
T5 construct: The name implies a homodimer of B chains
Description: as §1, §2

[9] = target: T6, BSA (bovine, UniProt P02769); experiment: ELISA: BSA coated as control, Fg fragment in solution, A450 (methods analogous to Example 3)
T6 construct: negative control; also called bovine serum albumin
Description: as §1, §2

T3 sequence (P12643 283-396, chain 1 of 2): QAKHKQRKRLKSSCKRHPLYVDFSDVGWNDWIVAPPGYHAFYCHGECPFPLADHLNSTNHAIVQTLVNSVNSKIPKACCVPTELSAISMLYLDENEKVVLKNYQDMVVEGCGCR
T3 sequence (P18075 293-431, chain 2 of 2): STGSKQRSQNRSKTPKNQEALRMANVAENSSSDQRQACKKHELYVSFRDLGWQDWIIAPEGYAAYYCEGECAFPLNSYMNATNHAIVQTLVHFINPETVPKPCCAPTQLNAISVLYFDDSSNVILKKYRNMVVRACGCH
IGF-BP5, sequence (P24593 21-272 limits assumed): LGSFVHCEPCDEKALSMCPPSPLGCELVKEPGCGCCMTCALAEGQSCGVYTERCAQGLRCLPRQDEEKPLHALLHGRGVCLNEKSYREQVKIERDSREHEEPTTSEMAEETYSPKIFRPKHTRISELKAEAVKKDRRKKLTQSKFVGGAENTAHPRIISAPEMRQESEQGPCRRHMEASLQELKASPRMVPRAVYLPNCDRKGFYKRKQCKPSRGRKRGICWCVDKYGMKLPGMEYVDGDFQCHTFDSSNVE
T5 sequence (P01127 82-190 limits assumed): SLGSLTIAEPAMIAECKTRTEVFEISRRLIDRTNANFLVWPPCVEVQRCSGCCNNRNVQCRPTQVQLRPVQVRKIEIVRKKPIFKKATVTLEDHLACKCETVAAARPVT
T1 sequence (P01127 82-190 limits assumed, chain 2 of 2, other chains not shown): as the sequence (P01127 82-190 limits assumed) above
T6 sequence (P02769 25-607 limits assumed): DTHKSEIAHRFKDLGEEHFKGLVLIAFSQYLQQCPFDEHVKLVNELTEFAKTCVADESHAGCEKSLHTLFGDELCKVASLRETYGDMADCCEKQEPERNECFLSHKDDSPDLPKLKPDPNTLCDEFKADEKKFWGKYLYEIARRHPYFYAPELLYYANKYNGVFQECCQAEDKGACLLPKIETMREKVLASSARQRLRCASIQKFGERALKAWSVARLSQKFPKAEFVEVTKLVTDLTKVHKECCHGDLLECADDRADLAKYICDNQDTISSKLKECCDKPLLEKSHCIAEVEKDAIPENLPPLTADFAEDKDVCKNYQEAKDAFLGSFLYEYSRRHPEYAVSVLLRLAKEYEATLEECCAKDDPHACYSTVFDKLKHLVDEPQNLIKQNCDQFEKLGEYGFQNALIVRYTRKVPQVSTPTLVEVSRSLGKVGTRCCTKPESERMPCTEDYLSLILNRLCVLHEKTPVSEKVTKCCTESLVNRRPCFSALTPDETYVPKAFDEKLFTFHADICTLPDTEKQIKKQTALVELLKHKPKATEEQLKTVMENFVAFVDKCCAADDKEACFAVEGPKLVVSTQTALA
TGF-β1, sequence (P01137 279-390 limits assumed): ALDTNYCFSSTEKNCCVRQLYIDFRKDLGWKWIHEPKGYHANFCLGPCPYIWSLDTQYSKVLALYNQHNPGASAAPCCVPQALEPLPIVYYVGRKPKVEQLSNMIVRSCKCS
FGF-2, sequence (P09038 135-288 limits assumed): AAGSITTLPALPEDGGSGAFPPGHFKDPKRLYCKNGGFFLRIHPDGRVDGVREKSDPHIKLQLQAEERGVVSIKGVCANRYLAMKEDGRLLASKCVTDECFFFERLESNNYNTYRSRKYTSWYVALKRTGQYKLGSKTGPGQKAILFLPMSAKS

B1: Fg β15-66 (other)
chain: GSNQEQVSPLGHRPLDKKREEAPSLRPAPPPISGGGYRARPAKAAATQKKVERKAPDAGGCGHHHHHH
notes: Made as a GST fusion; GST was cleaved off; also called TG-Fg β15-66; fibrinogen β15-66 domain
binding result [1]: binds | binding result [2]: binds | binding result [3]: binds | Kd [4]: 56.5 nM | Kd [5]: 1.9 nM | Kd [6]: 19.6 nM | Kd [7]: 53 nM | binding result [8]: binds | binding result [9]: no binding
